Assay results reported in the supplement of paper PMC12764529.
± gives the half width of the 95% confidence interval.

Tests used:
[1] = folding stability dG unfold (combined trypsin and chymotrypsin); higher = more stable
How it was run: (§1)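 Bayesian fitting of sequencing counts gave K50 for each design. Unfolding free energy followed by setting this against a sequence-predicted unfolded-state K50 and a shared folded-state K50, either per protease or with trypsin and chymotrypsin combined. The designs, under 80 residues and lacking cysteine, were digested in a PA-tagged cDNA display format at 11 threefold-diluted protease concentrations and without protease, and only those with AlphaFold2 dimer inter-PAE above 15 were kept.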

[2] = folding stability dG unfold from trypsin proteolysis; higher = more stable
How it was run: as §1

[3] = folding stability dG unfold from chymotrypsin proteolysis; higher = more stable
How it was run: as §1

In the case of “SAGGERKVKIEVMWNPDDPNYYMISVKFPGQERQFMIDPNDPERIIEFLEDLLGPGYKVDDIEIHPFRSAGG [r13_519_TrROS]”, the “folding stability dG unfold” value [1] is reported as 1.67 ± 0.051 kcal/mol, the “folding stability dG unfold” value [2] is reported as 1.562 ± 0.012 kcal/mol and the “folding stability dG unfold” value [3] is reported as 1.61 ± 0.053 kcal/mol.

For “SAGGETIPVVMYDPSTGKELTGEIPLKEALDLLAAGKKTAFIPAGGGPVKVHIEPLPDGTVLIVAESGSAGG [r13_171_TrMRF]”, the “folding stability dG unfold” value [1] was 0.636 ± 0.045 kcal/mol, the “folding stability dG unfold” value [2] was 0.576 ± 0.026 kcal/mol and the “folding stability dG unfold” value [3] was 0.71 ± 0.021 kcal/mol.

For “SAGGETLEVKLKNGYLLRIDLETGKVEVRPLKPVKIELKIEVKPPPVEVKLEKEIKLEKKIEVKVEFSAGGS [r16_453_TrROS_Hall]”, the “folding stability dG unfold” value [1] was 2.15 ± 0.18 kcal/mol, the “folding stability dG unfold” value [2] was 1.82 ± 0.19 kcal/mol and the “folding stability dG unfold” value [3] was 2.51 ± 0.062 kcal/mol.

In the case of “SAGGEVEVKEITMTAEELRELIEELKKEGYLVVIENKTGEKKVIPVKEDDLKPGDEVKIRVFKLKKPSAGGS [r16_31_TrROS_Hall]”, the “folding stability dG unfold” value [1] is reported as 0.733 ± 0.31 kcal/mol, the “folding stability dG unfold” value [2] is reported as 0.537 ± 0.14 kcal/mol and the “folding stability dG unfold” value [3] is reported as 0.691 ± 0.39 kcal/mol.

In the case of “SAGGEVKITVEKKGDGTVTVTITVKAKSLEDLLKALESLPGVEITKVEIEKDKETNEYTIRVTIKVKPSAGG [r13_796_TrROS_Hall]”, the “folding stability dG unfold” value [1] is reported as 3.64 ± 0.15 kcal/mol, the “folding stability dG unfold” value [2] is reported as 2.67 ± 0.068 kcal/mol and the “folding stability dG unfold” value [3] is reported as 4.07 ± 0.11 kcal/mol.

With “SAGGEVRIEVEIEVDPETGTVTVRAKIERDGKLFEVEMTLRVEPEEKPEKAPEVTVTVTVVFKPEGKSAGGS [r16_108_TrROS_Hall]” the “folding stability dG unfold” value [1] was 2.78 ± 0.34 kcal/mol, the “folding stability dG unfold” value [2] was 3.01 ± 0.26 kcal/mol and the “folding stability dG unfold” value [3] was 2.54 ± 0.076 kcal/mol.

In the case of “SAGGFEITEEREAVKTSPPEGPLRVEERLVIEVKSEDPEKALEEAQKETGLPVEVEVDPETGSVTITVRSAG [r5_907_JUSTAS]”, the “folding stability dG unfold” value [1] is reported as 0.448 ± 0.18 kcal/mol, the “folding stability dG unfold” value [2] is reported as -0.523 ± 0.56 kcal/mol and the “folding stability dG unfold” value [3] is reported as 0.766 ± 0.11 kcal/mol.

In the case of “SAGGFKIERDPEDGQVTITFPMPGFGMPFRISIPYDPNGDIDVDIEPSPGMPPHHRDMIENLARELADSAGG [r13_139_TrROS]”, the “folding stability dG unfold” value [1] is reported as 0.562 ± 0.13 kcal/mol, the “folding stability dG unfold” value [2] is reported as 0.656 ± 0.16 kcal/mol and the “folding stability dG unfold” value [3] is reported as 0.281 ± 0.43 kcal/mol.

With “SAGGFKIEYTGNYYTIELPGLKIMVNPNMGMMRIKLPGNGKKITIPVPMNNWEDMLDAVKEILKELGSAGGS [r8_447_TrROS]” the “folding stability dG unfold” value [1] was 2.56 ± 0.26 kcal/mol, the “folding stability dG unfold” value [2] was 3.17 ± 0.17 kcal/mol and the “folding stability dG unfold” value [3] was 2.18 ± 0.099 kcal/mol.

In the case of “SAGGFKLKIDDIEFHDDYLVIRLKIEVPVNDQTMKFELTLIIPVPPPPPPKPPVDPEEYRDPDGKWHSAGGS [r8_234_TrROS]”, the “folding stability dG unfold” value [1] is reported as 2.63 ± 0.24 kcal/mol, the “folding stability dG unfold” value [2] is reported as 2.19 ± 0.11 kcal/mol and the “folding stability dG unfold” value [3] is reported as 2.9 ± 0.062 kcal/mol.

For “SAGGFNRKVTVRVKVPATGEEFEFEFDFEGLTLEEIKRKIKEEIKKKGIVLKPDNPVVIEITDLEEDPASAG [r5_230_JUSTAS]”, the “folding stability dG unfold” value [1] was 3.98 ± 0.33 kcal/mol, the “folding stability dG unfold” value [2] was 4.13 ± 0.34 kcal/mol and the “folding stability dG unfold” value [3] was 3.86 ± 0.21 kcal/mol.

In the case of “SAGGGAEELAKALAEELEKEGLIKEVEVEVRVRPDGSIEVRIKVKVEPPPPPPPVTVVRDENGEERLLSAGG [r13_957_TrROS_Hall]”, the “folding stability dG unfold” value [1] is reported as 1.11 ± 0.31 kcal/mol, the “folding stability dG unfold” value [2] is reported as 0.972 ± 0.097 kcal/mol and the “folding stability dG unfold” value [3] is reported as 0.601 ± 0.12 kcal/mol.

In the case of “SAGGGAIVRARFPRDIPELVRAYKILEAAAPDEEVTLLLPEKPVVVVRREKVGDYFLLEVRLPEDLLSAGGS [r16_404_TrMRF]”, the “folding stability dG unfold” value [1] is reported as 0.609 ± 0.12 kcal/mol, the “folding stability dG unfold” value [2] is reported as 0.647 ± 0.2 kcal/mol and the “folding stability dG unfold” value [3] is reported as 0.546 ± 0.15 kcal/mol.

For “SAGGGALSPEEALGKPVTALVEVGGKPYLATYTLKPTPDGWLLEVTVYDPSTGTPTTRTLDWDDVEFESAGG [r13_289_TrMRF]”, the “folding stability dG unfold” value [1] was 1.87 ± 0.04 kcal/mol, the “folding stability dG unfold” value [2] was 1.09 ± 0.025 kcal/mol and the “folding stability dG unfold” value [3] was 2.232 ± 0.022 kcal/mol.

In the case of “SAGGGAMHTVTITDEAGNVTTFTLPTDLDTLKEKIKELFPEKKYEIKKVTRVPGNPGLTTITVKVPKDSAGG [r13_832_JUSTAS]”, the “folding stability dG unfold” value [1] is reported as 1.68 ± 0.11 kcal/mol, the “folding stability dG unfold” value [2] is reported as 1.28 ± 0.039 kcal/mol and the “folding stability dG unfold” value [3] is reported as 1.89 ± 0.064 kcal/mol.

In the case of “SAGGGASLNSIKISKIPGLNKYKITLPTSAAPGTEVTITINNPKGKETLTFTLPVKPLPGNTVVLLLSAGGS [r8_195_JUSTAS]”, the “folding stability dG unfold” value [1] is reported as 1.74 ± 0.066 kcal/mol, the “folding stability dG unfold” value [2] is reported as 1.46 ± 0.045 kcal/mol and the “folding stability dG unfold” value [3] is reported as 1.74 ± 0.059 kcal/mol.

In the case of “SAGGGEYKVEVVTFPDGSKVVLVTLPNGDKVALPVPVTRTVPVLDKTGPLKKPGPVEVAALVLVSSNGSAGG [r13_236_TrMRF]”, the “folding stability dG unfold” value [1] is reported as 0.956 ± 0.076 kcal/mol, the “folding stability dG unfold” value [2] is reported as 0.636 ± 0.035 kcal/mol and the “folding stability dG unfold” value [3] is reported as 1.17 ± 0.12 kcal/mol.

In the case of “SAGGGFDLEFVTPDGRRIRVEVKRILSYDPEKGYLVMEVKVTIYHPDKPIEIDGIIVFPPGFPPGAGGSAGG [r13_823_TrMRF]”, the “folding stability dG unfold” value [1] is reported as 3.85 ± 0.12 kcal/mol, the “folding stability dG unfold” value [2] is reported as 3.6 ± 0.13 kcal/mol and the “folding stability dG unfold” value [3] is reported as 4 ± 0.17 kcal/mol.

With “SAGGGGSTTQPQQVELPGDRTATVTLHTHGDTPTATITLSEKESELGTVTVPVASTAEVAAAVAALASAGGS [r16_55_JUSTAS]” the “folding stability dG unfold” value [1] was 0.973 ± 0.097 kcal/mol, the “folding stability dG unfold” value [2] was 1.26 ± 0.028 kcal/mol and the “folding stability dG unfold” value [3] was 0.683 ± 0.029 kcal/mol.

In the case of “SAGGGIVEKIKKIIKEAGYKAKVEESEDGIHIVVEAPIEAGKVLEKKIKEATGKEIKIEYVPPGKGASAGGS [r16_514_TrMRF]”, the “folding stability dG unfold” value [1] is reported as 3.25 ± 0.16 kcal/mol, the “folding stability dG unfold” value [2] is reported as 2.21 ± 0.19 kcal/mol and the “folding stability dG unfold” value [3] is reported as 3.54 ± 0.25 kcal/mol.

For “SAGGGKKNKIVAVDEEGNEIVFDIDADIDTVFEAIKKLFPNKEIEVDEVIEFEGYPDYVVVFVKIPKKSAGG [r13_832_TrMRF]”, the “folding stability dG unfold” value [1] was 2.22 ± 0.22 kcal/mol, the “folding stability dG unfold” value [2] was 1.72 ± 0.14 kcal/mol and the “folding stability dG unfold” value [3] was 2.59 ± 0.069 kcal/mol.

In the case of “SAGGGKPVNILIKKPNEIKIIPIPVVKIEPLESPDKLYIIFEDGYIMEFDPKTLELLSIEKVKPIEEASAGG [r13_636_TrMRF]”, the “folding stability dG unfold” value [1] is reported as 1.69 ± 0.3 kcal/mol, the “folding stability dG unfold” value [2] is reported as 1.35 ± 0.11 kcal/mol and the “folding stability dG unfold” value [3] is reported as 1.94 ± 0.066 kcal/mol.

In the case of “SAGGGKTVVTTTPDGRTVVAAELPDGSVVAVATFPDAPVLATYNPETKTVTVAFFKGGKLVATASDSSSAGG [r13_748_TrMRF]”, the “folding stability dG unfold” value [1] is reported as 0.837 ± 0.13 kcal/mol, the “folding stability dG unfold” value [2] is reported as 0.698 ± 0.062 kcal/mol and the “folding stability dG unfold” value [3] is reported as 0.855 ± 0.11 kcal/mol.

For “SAGGGLIRDAIENNPELRELLKEGYVLYVTYPDGKSGVIEINNASASEIDDAIRAHFPGEVELEFGSSAGGS [r16_655_TrMRF]”, the “folding stability dG unfold” value [1] was 0.752 ± 0.046 kcal/mol, the “folding stability dG unfold” value [2] was 1.04 ± 0.028 kcal/mol and the “folding stability dG unfold” value [3] was 0.389 ± 0.048 kcal/mol.

For “SAGGGMAPDTPVTVRIEITLPDGTRRVLDIPGRAGDPALLEAIAAELREEGYEVREIRPVEGRIVVASAGGS [r8_497_JUSTAS]”, the “folding stability dG unfold” value [1] was 2.53 ± 0.081 kcal/mol, the “folding stability dG unfold” value [2] was 1.96 ± 0.028 kcal/mol and the “folding stability dG unfold” value [3] was 2.81 ± 0.08 kcal/mol.

In the case of “SAGGGMEPKPVEVTLTIPKGTVTPEDKVPVSTIAKLLGIPEDTEVTVEKITPVPNSDTELVTLTIVTSAGGS [r16_165_JUSTAS]”, the “folding stability dG unfold” value [1] is reported as 0.615 ± 0.12 kcal/mol, the “folding stability dG unfold” value [2] is reported as 0.412 ± 0.023 kcal/mol and the “folding stability dG unfold” value [3] is reported as 0.571 ± 0.074 kcal/mol.
